Measured values from patent US20160083466A1 (Regeneron, published 2016).

T1: rat IL-25 expressed with a C-terminal myc-myc-hexahistidine tag (rat)
T1 construct: also called Rat IL-25-MMH
T1 chain: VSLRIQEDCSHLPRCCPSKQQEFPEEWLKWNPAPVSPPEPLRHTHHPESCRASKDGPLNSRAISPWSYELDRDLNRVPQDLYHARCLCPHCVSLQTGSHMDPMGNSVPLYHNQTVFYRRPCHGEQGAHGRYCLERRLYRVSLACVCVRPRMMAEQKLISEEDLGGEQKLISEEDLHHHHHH

T2: human IL-25 expressed with a C-terminal myc-myc-hexahistidine tag (human)
T2 chain: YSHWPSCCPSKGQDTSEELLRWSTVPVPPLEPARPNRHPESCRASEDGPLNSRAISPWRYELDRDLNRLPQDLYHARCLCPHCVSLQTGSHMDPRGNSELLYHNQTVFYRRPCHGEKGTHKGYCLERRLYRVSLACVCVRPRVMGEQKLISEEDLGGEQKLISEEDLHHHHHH

T3: monkey IL-25 expressed with a C-terminal myc-myc-hexahistidine tag (M. fascicularis (cynomolgus monkey))
T3 construct: also called monkey IL-25-MMH; MfIL-25-MMH
T3 chain: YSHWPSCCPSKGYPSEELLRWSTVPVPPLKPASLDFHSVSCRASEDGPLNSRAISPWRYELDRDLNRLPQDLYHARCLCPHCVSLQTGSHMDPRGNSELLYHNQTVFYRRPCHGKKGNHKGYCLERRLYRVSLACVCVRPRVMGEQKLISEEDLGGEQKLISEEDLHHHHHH

T4: mouse IL-25 expressed with a C-terminal myc-myc-hexahistidine tag (mouse)
T4 construct: also called Mouse IL-25-MMH; mIL-25-MMH
T4 chain: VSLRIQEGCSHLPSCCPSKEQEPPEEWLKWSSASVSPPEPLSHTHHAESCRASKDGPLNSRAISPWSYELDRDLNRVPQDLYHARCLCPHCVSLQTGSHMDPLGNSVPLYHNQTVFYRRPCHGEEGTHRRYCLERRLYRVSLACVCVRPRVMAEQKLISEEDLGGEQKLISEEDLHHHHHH

T5: human IL-25 expressed with a C-terminal myc-myc-hexahistidine tag (human)
T5 construct: also called human IL-25-MMH; hIL-25-MMH
T5 chain: T2 chain

T6: monkey IL-25 expressed with a C-terminal myc-myc-hexahistidine tag (M. fascicularis (cynomolgus monkey))
T6 construct: also called Monkey IL-25-MMH; MfIL-25-MMH
T6 chain: T3 chain

T7: mouse IL-25 expressed with a C-terminal myc-myc-hexahistidine tag (mouse)
T7 construct: also called mouse IL-25-MMH; mIL-25-MMH
T7 chain: T4 chain

T8: rat IL-25 expressed with a C-terminal myc-myc-hexahistidine tag (rat)
T8 construct: also called rat IL-25-MMH
T8 chain: T1 chain

B1: H4H10900P (antibody, human IgG4, V domains shown)
VH: QVQLQESGPGLVRPSETLSLICTVSGGSINSYYWSWIRQPPGKGLEWIGYIYYSGSTNYNPSLKSRVTISGDTSKNQFSLKLSSVTAADTAVYYCARGVIWNYELREFDYWGQGTLVTVSS
VL: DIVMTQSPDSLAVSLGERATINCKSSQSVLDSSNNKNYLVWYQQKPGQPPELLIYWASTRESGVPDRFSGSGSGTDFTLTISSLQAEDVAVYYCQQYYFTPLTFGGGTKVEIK
notes: H4H prefix = human IgG4 Fc
B2: H4H10864P (antibody, human IgG4, V domains shown)
VH: QVQLQESGPGLVKPSETLSLTCTVSGGSISNYFWSWIRQPPGKGLEWIGFNYNSGSTNYNPSLKSRVTISVDTSKNQFSLKLSSVTAADTAVYYCARGYNWNYEIAWFDPWGQGTLVTVSS
VL: not shown
notes: H4H prefix = human IgG4 Fc
B3: H4H10906P (antibody, human IgG4, V domains shown)
VH: QVQLQESGPGLVKPSETLSLTCTVSGGSISSYYWSWIRQPPGKGLEWIGFIYYSGSTNYNPSLKSRVTISVDTSKNQFSLKLSSVTAADTAVYYCARHDSDYELYGMDVWGQGTTVTVSS
VL: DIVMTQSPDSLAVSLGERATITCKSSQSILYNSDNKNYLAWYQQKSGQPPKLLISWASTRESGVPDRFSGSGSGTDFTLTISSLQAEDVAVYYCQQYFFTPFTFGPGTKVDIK
B4: H4H10901P (antibody, human IgG4, V domains shown)
VH: QLQLQESGPGLVRPSETLSLTCSVSSGSIRSSNYYWGWIRQPPGKGLEWIGNIYYSGNTFYNPSLKGRVTISVDTSKNQFSLKLSSVTATDTAVYYCARQGYSDYELNWFDPWGQGTLVTVSS
VL: DIVMTQSPDSLVLSLGERATFNCKSSQSVLDSSNNKNYLAWYQQKPGQPPKLLIYWASTRESGVPDRFSGSGSGTDFSLTISSLQAEDVALYYCQQFYNSPWTFGQGTKVEIK
B5: H4H10864P (antibody, human IgG4, V domains shown)
VH: B2 VH
VL: not shown
B6: H4H10903P (antibody, human IgG4, V domains shown)
VH: QVQLQESGPGLVKPSETLSLTCTVSGGSINSYSWTWIRQPPGKGLEWIGNIYNSENTNYNPSLKSRVTISVDTSKSQVSLKLNSVTAADTAVYYCARTYNWNYEIGAMGVWGQGTTVTVSS
VL: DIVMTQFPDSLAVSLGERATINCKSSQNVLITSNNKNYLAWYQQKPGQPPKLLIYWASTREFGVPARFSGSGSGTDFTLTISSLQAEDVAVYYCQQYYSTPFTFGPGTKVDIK
B7: H4H10862P (antibody, human IgG4, V domains shown)
VH: QVQLQESGPGLVKPSETLSLTCTVSGGSISSYFWSWIRQAPGKGLEWIGFIDYSGSTNYNPSLKSRVTISVDTSKNQFSLKLNSVTAADTAVYYCARQEIINFELNWFDPWGQGTLVTVSS
VL: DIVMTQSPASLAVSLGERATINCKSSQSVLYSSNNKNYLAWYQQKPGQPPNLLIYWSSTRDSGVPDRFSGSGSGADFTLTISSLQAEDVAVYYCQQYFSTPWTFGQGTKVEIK
B8: H4H10861P (antibody, human IgG4, V domains shown)
VH: QVQLQESGPGLVKPSETLSLTCTVSGASISNYYWSWIRQPPGKGLEWIGYIFYSGNTNYNPSLKSRVTISVDTSKNQFSLKLSSVTAADTAVYYCARVRFSDYELNWFDPWGQGTLVTVSS
VL: DIVMTQSPDSLAVFLGERATINCRSSQSVFLGSNNKNYLAWYQQKPGQPPKLLIYWASSRESGVPDRFSGSGSGTDFTLTINSLQAEDVAVYYCQQYFITPLTFGGGTKVEIK

Biological target: T1, rat IL-25 expressed with a C-terminal …
Experiment: SPR Biacore, antibody captured, 37C;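 as to 100 nM Monkey IL-25-MMH Bound (RU): biacore 4000 surface plasmon resonance biosensor measuring binding of IL-25-MMH to purified anti-IL-25 antibodies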;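 as to 100 nM Mouse IL-25-MMH Bound (RU): Real-time sensorgrams of IL-25-MMH binding to purified anti-IL-25 antibodies, rate constants obtained by fitting a 1:1 binding model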;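 as to Kd: biacore 4000 surface plasmon resonance biosensor measuring binding of IL-25-MMH to purified anti-IL-25 antibodies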

100 nM Rat IL-25-MMH Bound (RU)	Binder
2 RU	B1
1 RU	B2

Biological target: T2, human IL-25 expressed with a C-terminal …
Experiment: cell-based or functional assay

IC50 values of antibodies for blocking IL-5 release from Donor #727058-059	IC50 values of antibodies for blocking IL-5 release from Donor #727060	Binder
39.2 pM	578 pM	B1
1150 pM	677 pM	B2

Biological target: T2, human IL-25 expressed with a C-terminal …
Experiment: BLI Octet, hIL-25-MMH captured on anti-Penta-His sensor, 25C
Procedure: Binding competition between anti-IL-25 monoclonal antibodies was determined using a real time, label-free bio-layer interferometry assay on an Octet QK384 biosensor (Pall ForteBio Corp.).
The biosensors were washed in HBST kinetics buffer in between every step of the experiment. The real-time binding response was monitored during the course of the experiment and the binding response at the end of every step was recorded.

50 ug/mL mAb-1 Binding (nm)	Binder
0.68 nm	B1
0.84 nm	B2

Biological target: T1, rat IL-25 expressed with a C-terminal …
Experiment: SPR Biacore, antibody captured, 25C;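 as to 100 nM Rat IL-25-MMH Bound (RU): purified anti-IL-25 antibodies were tested by real-time surface plasmon resonance on a Biacore 4000, with rate constants obtained from sensorgram fits to a 1:1 binding model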
Procedure: (§1) Equilibrium dissociation constants (KD values) for IL-25 binding to purified anti-IL-25 antibodies were determined using a real-time surface plasmon resonance biosensor assay on a Biacore 4000 instrument (GE Healthcare). […] All the IL-25 reagents were expressed with a C-terminal myc-myc-hexahistidine tag (referred to herein as “IL-25-MMH”). […] Kinetic association (kₐ) and dissociation (kd) rate constants were determined by fitting the real-time sensorgrams to a 1:1 binding model using Scrubber 2.0c curve fitting software.

100 nM Rat IL-25-MMH Bound (RU)	binding result	Binder
0 RU	no binding (tested: 100 nM)	B1
-1 RU		B2

Biological target: T3, monkey IL-25 expressed with a …
Experiment: SPR Biacore, captured mAb, 25°C;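 as to 100 nM Human IL-25-MMH Bound (RU): biacore 4000 SPR with IL-25-MMH as analyte over purified anti-IL-25 antibodies, association and dissociation rates derived from fitting sensorgrams to a 1:1 binding model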;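 as to 100 nM Monkey IL-25-MMH Bound (RU): Real-time surface plasmon resonance on a Biacore 4000, with IL-25-MMH binding to purified anti-IL-25 antibodies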
Procedure: as §1

100 nM Monkey IL-25-MMH Bound (RU)	Kd	koff	kon	t½	Binder
61 RU	0.0141 nM	2.95e-05 s⁻¹	2.09e+06 M⁻¹ s⁻¹	391 min	B3
64 RU	0.0116 nM	3.06e-05 s⁻¹	2.63e+06 M⁻¹ s⁻¹	377 min	B4
78 RU	0.0128 nM	4.7e-05 s⁻¹	3.68e+06 M⁻¹ s⁻¹	246 min	B5
57 RU	≤ 0.00871 nM	≤ 1e-05 s⁻¹	1.15e+06 M⁻¹ s⁻¹	1160 min	B6
58 RU	0.0255 nM	5.1e-05 s⁻¹	2e+06 M⁻¹ s⁻¹	226 min	B7
48 RU	0.00454 nM	1.48e-05 s⁻¹	3.26e+06 M⁻¹ s⁻¹	779 min	B8

Biological target: T2, human IL-25 expressed with a C-terminal …
Experiment: competition ELISA, 2 nM hIL-25-MMH binding to coated hIL-17RB-hFc
Procedure: (§2) Data analysis was performed using a sigmoidal dose-response model within Prism™ software (GraphPad). […] The absorbance values of the wells containing the highest concentration for each antibody were used to determine the percent maximum blockade.

% Maximum blocking of 200 nM antibody	Binder
90%	B1
88%	B2

Biological target: T2, human IL-25 expressed with a C-terminal …
Experiment: competition ELISA, 2 nM hIL-25-MMH binding to coated hIL-17RB-hFc; (*) below theoretical bottom of the assay
Procedure: as §2

IC50	Binder
0.2 nM	B1
0.26 nM	B2

Biological target: T4, mouse IL-25 expressed with a C-terminal …
Experiment: SPR Biacore, antibody captured, 25C;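 as to 100 nM Rat IL-25-MMH Bound (RU): purified anti-IL-25 antibodies were tested by real-time surface plasmon resonance on a Biacore 4000, with rate constants obtained from sensorgram fits to a 1:1 binding model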
Procedure: as §1

100 nM Mouse IL-25-MMH Bound (RU)	binding result	Binder
0 RU	no binding (tested: 100 nM)	B1
-1 RU		B2

Biological target: T5, human IL-25 expressed with a C-terminal …
Experiment: SPR Biacore, captured mAb, 37°C
Procedure: as §1

100 nM Human IL-25-MMH Bound (RU)	Kd	koff	kon	t½	Binder
72 RU	0.0529 nM	0.000154 s⁻¹	2.9e+06 M⁻¹ s⁻¹	75 min	B3
65 RU	0.0651 nM	0.000208 s⁻¹	3.19e+06 M⁻¹ s⁻¹	56 min	B4
94 RU	0.0526 nM	0.000196 s⁻¹	3.73e+06 M⁻¹ s⁻¹	59 min	B5
65 RU	0.0508 nM	7.75e-05 s⁻¹	1.53e+06 M⁻¹ s⁻¹	149 min	B6
72 RU	0.0879 nM	0.00021 s⁻¹	2.39e+06 M⁻¹ s⁻¹	55 min	B7
63 RU	0.0268 nM	7.8e-05 s⁻¹	2.91e+06 M⁻¹ s⁻¹	148 min	B8

Biological target: T6, monkey IL-25 expressed with a …
Experiment: SPR Biacore, antibody captured, 37C;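 as to 100 nM Monkey IL-25-MMH Bound (RU): biacore 4000 surface plasmon resonance biosensor measuring binding of IL-25-MMH to purified anti-IL-25 antibodies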;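 as to 100 nM Mouse IL-25-MMH Bound (RU): Real-time sensorgrams of IL-25-MMH binding to purified anti-IL-25 antibodies, rate constants obtained by fitting a 1:1 binding model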

100 nM Monkey IL-25-MMH Bound (RU)	Kd	koff	kon	t½	Binder
50 RU	0.0244 nM	7.49e-05 s⁻¹	3.07e+06 M⁻¹ s⁻¹	154 min	B1
94 RU	0.0436 nM	0.00019 s⁻¹	4.35e+06 M⁻¹ s⁻¹	61 min	B2

Biological target: T4, mouse IL-25 expressed with a C-terminal …
Experiment: SPR Biacore, antibody captured, 37C;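 as to 100 nM Monkey IL-25-MMH Bound (RU): biacore 4000 surface plasmon resonance biosensor measuring binding of IL-25-MMH to purified anti-IL-25 antibodies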;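 as to 100 nM Mouse IL-25-MMH Bound (RU): Real-time sensorgrams of IL-25-MMH binding to purified anti-IL-25 antibodies, rate constants obtained by fitting a 1:1 binding model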

100 nM Mouse IL-25-MMH Bound (RU)	Binder
2 RU	B1
1 RU	B2

Biological target: T5, human IL-25 expressed with a C-terminal …
Experiment: SPR Biacore, captured mAb, 25°C;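 as to 100 nM Human IL-25-MMH Bound (RU): biacore 4000 SPR with IL-25-MMH as analyte over purified anti-IL-25 antibodies, association and dissociation rates derived from fitting sensorgrams to a 1:1 binding model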;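 as to 100 nM Monkey IL-25-MMH Bound (RU): Real-time surface plasmon resonance on a Biacore 4000, with IL-25-MMH binding to purified anti-IL-25 antibodies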
Procedure: as §1

100 nM Human IL-25-MMH Bound (RU)	Kd	koff	kon	t½	Binder
61 RU	0.0264 nM	4.32e-05 s⁻¹	1.64e+06 M⁻¹ s⁻¹	268 min	B3
62 RU	0.0254 nM	5.79e-05 s⁻¹	2.28e+06 M⁻¹ s⁻¹	199 min	B4
75 RU	0.0168 nM	4.51e-05 s⁻¹	2.68e+06 M⁻¹ s⁻¹	256 min	B5
54 RU	0.0192 nM	1.73e-05 s⁻¹	897000 M⁻¹ s⁻¹	670 min	B6
56 RU	0.0344 nM	6.49e-05 s⁻¹	1.88e+06 M⁻¹ s⁻¹	178 min	B7
47 RU	0.0116 nM	2.34e-05 s⁻¹	2.01e+06 M⁻¹ s⁻¹	493 min	B8

Biological target: T7, mouse IL-25 expressed with a C-terminal …
Experiment: SPR Biacore, captured mAb, 25°C and 37°C
Procedure: as §1

binding result	Binder
no binding (tested: 100 nM)	B3
no binding (tested: 100 nM)	B4
no binding (tested: 100 nM)	B5
no binding (tested: 100 nM)	B6
no binding (tested: 100 nM)	B7
no binding (tested: 100 nM)	B8

Biological target: T8, rat IL-25 expressed with a C-terminal …
Experiment: SPR Biacore, captured mAb, 25°C and 37°C
Procedure: as §1

binding result	Binder
no binding (tested: 100 nM)	B3
no binding (tested: 100 nM)	B4
no binding (tested: 100 nM)	B5
no binding (tested: 100 nM)	B6
no binding (tested: 100 nM)	B7
no binding (tested: 100 nM)	B8

Biological target: T6, monkey IL-25 expressed with a …
Experiment: cell-based or functional assay

IC50, luciferase reporter cells, 12 pM MfIL-25-MMH	Binder
2.2e-11 M	B1
2.6e-11 M	B2

Biological target: T2, human IL-25 expressed with a C-terminal …
Experiment: cell-based or functional assay
Remark: another data set of the same source

IC50, luciferase reporter cells, 5 pM hIL-25-MMH	Binder
3.1e-11 M	B1
3.6e-11 M	B2
